Sequences and labels used below:
B1: Nogo-B receptor (NgBR), endogenous, on human umbilical vein endothelial cells (HUVEC) (receptor)
chain: SWLRVRFGTWNWIWRRCCRAASAAVLAPLGFTLRKPPAVGRNRRHHRHPRGGSCLAAAHHRMRWRADGRSLEKLPVHMGLVITEVEQEPSFSDIASLVVWCMAVGISYISVYDHQGIFKRNNSRLMDEILKQQQELLGLDCSKYSPEFANSNDKDDQVLNCHLAVKVLSPEDGKADIVRAAQDFCQLVAQKQKRPTDLDVDTLASLLSSNGCPDPDLVLKFGPVDSTLGFLPWHIRLTEIVSLPSHLNISYEDFFSALRQYAACEQRLGK
notes: The assays were done on untransfected HUVEC; also called native HUVEC; endogenous NgBR
B2: human Nogo-B receptor (NgBR), expressed from the cloned cDNA on transfected COS-7 or CHO cells (receptor)
chain: B1 chain
notes: also called Am-Nogo receptor; Am-NgR
B3: AP-Nogo-B (amino acids 1-180) (ligand, UniProt Q9NQC3-2 1-180, looked up)
chain: MEDLDQSPLVSSSDSPPRPQPAFKYQFVREPEDEEEEEEEEEEDEDEDLEELEVLERKPAAGLSAAPVPTAPAAGAPLMDFGNDFVPPAPRGPLPAAPPVAPERQPSWDPSPVSSTVPAPSPLSAAAVSPSKLPEDDEPPARPPPPPPASVSPQAEPVWTPPAPAPAAPPSTPAAPKRRG
notes: range 1-180; Construction not described; also called AP-Nogo-B (1-180); not shown: alkaline phosphatase part of the AP fusion
B4: AP-Nogo-A (59-172) (ligand, UniProt Q9NQC3 59-172, looked up)
chain: PAAGLSAAPVPTAPAAGAPLMDFGNDFVPPAPRGPLPAAPPVAPERQPSWDPSPVSSTVPAPSPLSAAAVSPSKLPEDDEPPARPPPPPPASVSPQAEPVWTPPAPAPAAPPST
notes: also called AP-Am-Nogo-A domains; not shown: alkaline phosphatase part of the AP fusion
B5: mFc-ecto (Fc fusion of amino acids 52-116 of NgBR, HA- and heptahistidine-tagged) (Fc fusion)
chain: LGFTLRKPPAVGRNRRHHRHPRGGSCLAAAHHRMRWRADGRSLEKLPVHMGLVITEVEQEPSFSD
notes: Purified from conditioned media of mammalian cells; also called mFc fusion with the NgBR domain; mFc-NgBR-ectodomain; not shown: mFc, the Fc fragment of IgG; HA tag; heptahistidine tag
B6: AP-Am-Nogo-B (alkaline phosphatase fusion protein with residues 1-200 at the amino terminus of human Nogo-B) (ligand, UniProt Q9NQC3-2 1-200, looked up)
chain: MEDLDQSPLVSSSDSPPRPQPAFKYQFVREPEDEEEEEEEEEEDEDEDLEELEVLERKPAAGLSAAPVPTAPAAGAPLMDFGNDFVPPAPRGPLPAAPPVAPERQPSWDPSPVSSTVPAPSPLSAAAVSPSKLPEDDEPPARPPPPPPASVSPQAEPVWTPPAPAPAAPPSTPAAPKRRGSSGSVVVDLLYWRDIKKTGV
notes: range 1-200; also called full-length AP-Am-Nogo-B; APNogo200; not shown: placental alkaline phosphatase coding region of vector pcAP-5

Experiment [1] concerns the target T1, AP (recombinant alkaline phosphatase alone) (UniProt P05187 23-511).
T1 construct: Control protein without a Nogo part; also called AP alone
Description: surface binding of AP proteins to HUVEC (FIG. 12).

Experiment [2] deals with T1, AP (recombinant alkaline phosphatase …). Description: AP-fusion binding to COS cells transfected with the NgBR cDNA, AP staining (FIG. 6). As to the method: To detect AP-Am-Nogo-B binding, cultures were washed with Hanks' balanced salt solution (HBSS) containing 20 mM HEPES, pH 7.5, and 1 mg/mL BSA (HBH). The plates were then incubated with AP-Am-Nogo-B in DMEM containing 20 mM Hepes, pH 7.5, and 1 mg/mL BSA for 2 hours at 4° C. The bound AP-Am-Nogo-B was detected by using the Blue Substrate kit (Vector Laboratories). The blue staining was examined by using the ODYSSEY Infrared Imaging System (Li-Cor, Lincoln, Nebr.) and confirmed by microscopy. Alternatively, the bound AP-Am-Nogo-B was extracted with Triton X-100, and AP activity was colorimetrically quantified by using p-nitrophenyl phosphate (Sigma) as substrate after heat inactivation of endogenous AP. Non-specific binding was determined by measuring binding in the presence of a 100-fold molar excess of recombinant Am-Nogo-B lacking the AP fusion protein. Specific binding was determined by subtracting the non-specific binding from total binding. For determination of apparent Kd, the binding of AP-Am-Nogo-B was measured in triplicate as described above and the Kd value was quantified by using the Scatchard plot program of GraphPad PRISM (one-site binding, linear regression) using the ratio of bound ligand to free ligand as the y axis and bound ligand (pM) as the x axis. […]

The target of experiment [3] is B2. The experiment can be described thus: surface binding of AP proteins to CHO cells expressing NgBR (FIG. 11).
For experiment [4], the target named is B1. Description: surface binding of AP proteins to HUVEC (FIG. 12).
For experiment [5], the target named is B1. Description: surface binding of AP proteins to HUVEC (FIG. 15).
Experiment [6] concerns the target B2. The experiment can be described thus: surface binding of AP proteins to CHO cells expressing NgBR (FIG. 14).
Experiment [7] deals with B6. Description: blocking of AP-Am-Nogo-B binding to endothelial cells (FIG. 34).
Experiment [8] has as its target B1. Description: AP-fusion binding to HUVEC at 4 C, AP activity read-out, Scatchard plot (FIGS. 4 and 5). As to the method: (§1) To detect AP-Am-Nogo-B binding, cultures were washed with Hanks' balanced salt solution (HBSS) containing 20 mM HEPES, pH 7.5, and 1 mg/mL BSA (HBH). The plates were then incubated with AP-Am-Nogo-B in DMEM containing 20 mM Hepes, pH 7.5, and 1 mg/mL BSA for 2 hours at 4° C. The bound AP-Am-Nogo-B was detected by using the Blue Substrate kit (Vector Laboratories). The blue staining was examined by using the ODYSSEY Infrared Imaging System (Li-Cor, Lincoln, Nebr.) and confirmed by microscopy. Alternatively, the bound AP-Am-Nogo-B was extracted with Triton X-100, and AP activity was colorimetrically quantified by using p-nitrophenyl phosphate (Sigma) as substrate after heat inactivation of endogenous AP. Non-specific binding was determined by measuring binding in the presence of a 100-fold molar excess of recombinant Am-Nogo-B lacking the AP fusion protein. Specific binding was determined by subtracting the non-specific binding from total binding. For determination of apparent Kd, the binding of AP-Am-Nogo-B was measured in triplicate as described above and the Kd value was quantified by using the Scatchard plot program of GraphPad PRISM (one-site binding, linear regression) using the ratio of bound ligand to free ligand as the y axis and bound ligand (pM) as the x axis.

The target of experiment [9] is B2. The experiment can be described thus: AP-fusion binding to CHO cells transiently transfected with NgBR cDNA, Scatchard plot (FIG. 7). As to the method: as §1

T1 sequence (P05187 23-511): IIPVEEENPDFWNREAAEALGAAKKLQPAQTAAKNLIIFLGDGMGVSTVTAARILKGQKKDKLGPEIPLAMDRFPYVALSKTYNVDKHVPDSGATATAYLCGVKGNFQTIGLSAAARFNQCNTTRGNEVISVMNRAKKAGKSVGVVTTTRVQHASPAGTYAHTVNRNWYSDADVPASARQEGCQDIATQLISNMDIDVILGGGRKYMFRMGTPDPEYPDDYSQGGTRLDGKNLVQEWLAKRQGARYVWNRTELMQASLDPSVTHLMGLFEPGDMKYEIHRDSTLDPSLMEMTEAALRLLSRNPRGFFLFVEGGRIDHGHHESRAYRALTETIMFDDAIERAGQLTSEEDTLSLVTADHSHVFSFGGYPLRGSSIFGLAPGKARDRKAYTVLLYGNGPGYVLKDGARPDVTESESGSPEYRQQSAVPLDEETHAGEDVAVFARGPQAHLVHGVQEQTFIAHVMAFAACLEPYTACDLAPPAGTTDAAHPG

As for B1, the binding result in experiment [1] is reported as “no binding”.

In the case of B2, the binding result in experiment [2] is recorded as “no binding”.

As for B3, the binding result in experiment [3] and in experiment [4] was “no binding” throughout.

As for B4, the binding result in experiment [5] and in experiment [6] was “no binding” each time.

Turning to B5, the binding result in experiment [7] is reported as “binds”.

B6: the Kd came to 9.7 nM in experiment [8] and 2.74 nM in experiment [9].
